One block for each binder: values may come before it. Positions of bridges follow the written chain, without caps; N, C: chain ends. Non-standard residues stand in square brackets, D forms with d. Primed or numbered codes have the meaning given here. No end group written: not given here. T(Sa)″ = not defined here
Key:
Test in all cases: on-bead capture from E. coli membrane protein extract; tryptic digest, MALDI peptide mass fingerprint
[1] = molecular target: T1, glutamine tRNA synthetase (Escherichia coli, UniProt P00962 2-554)
T1 sequence (looked up): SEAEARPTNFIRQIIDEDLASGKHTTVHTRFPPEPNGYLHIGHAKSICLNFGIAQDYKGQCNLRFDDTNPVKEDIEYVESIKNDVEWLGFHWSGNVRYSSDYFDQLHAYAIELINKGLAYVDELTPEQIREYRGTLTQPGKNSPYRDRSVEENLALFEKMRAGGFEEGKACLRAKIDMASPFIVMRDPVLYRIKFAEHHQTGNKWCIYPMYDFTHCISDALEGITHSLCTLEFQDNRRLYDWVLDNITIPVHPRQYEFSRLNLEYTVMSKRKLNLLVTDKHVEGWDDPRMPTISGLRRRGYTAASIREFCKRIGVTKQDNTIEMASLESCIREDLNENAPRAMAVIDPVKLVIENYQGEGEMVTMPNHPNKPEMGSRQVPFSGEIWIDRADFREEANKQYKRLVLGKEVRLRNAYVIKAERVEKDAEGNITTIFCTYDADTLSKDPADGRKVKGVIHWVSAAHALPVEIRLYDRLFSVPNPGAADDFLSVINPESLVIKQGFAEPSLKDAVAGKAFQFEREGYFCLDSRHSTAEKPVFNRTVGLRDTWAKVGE

Biotin synthetase = molecular target: T2, Biotin synthetase (Escherichia coli, UniProt P12996 1-346)
T2 sequence (looked up): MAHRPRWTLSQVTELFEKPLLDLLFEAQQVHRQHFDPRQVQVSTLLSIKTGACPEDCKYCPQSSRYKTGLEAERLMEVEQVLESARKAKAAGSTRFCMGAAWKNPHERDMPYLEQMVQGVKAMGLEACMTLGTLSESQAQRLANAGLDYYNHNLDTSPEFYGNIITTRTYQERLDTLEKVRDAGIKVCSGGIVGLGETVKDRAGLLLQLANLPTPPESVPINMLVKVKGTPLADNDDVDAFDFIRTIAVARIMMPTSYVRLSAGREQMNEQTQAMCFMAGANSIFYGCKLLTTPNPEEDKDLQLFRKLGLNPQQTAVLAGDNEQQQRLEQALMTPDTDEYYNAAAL

[2] = molecular target: UDP-glucose dehydrogenase (Escherichia coli, UniProt P76373 1-388)
[3] = molecular target: isopropyl malate dehydrogenase (Escherichia coli, UniProt P30125 2-363)
Chain of isopropyl malate dehydrogenase (P30125 2-363 limits assumed): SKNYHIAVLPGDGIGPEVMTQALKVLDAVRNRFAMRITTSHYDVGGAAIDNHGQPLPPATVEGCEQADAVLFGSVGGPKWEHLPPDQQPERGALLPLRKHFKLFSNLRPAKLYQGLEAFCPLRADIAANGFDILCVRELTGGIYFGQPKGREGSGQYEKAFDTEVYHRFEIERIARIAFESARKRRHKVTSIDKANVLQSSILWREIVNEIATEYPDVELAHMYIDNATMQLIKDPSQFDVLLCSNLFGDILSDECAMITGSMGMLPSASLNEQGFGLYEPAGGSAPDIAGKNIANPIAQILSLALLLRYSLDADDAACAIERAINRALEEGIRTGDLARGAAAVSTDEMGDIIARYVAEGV

[4] = molecular target: T3, Mannose-1-phosphate guanyl transferase (Escherichia coli, UniProt P24174 1-478)
T3 sequence (looked up): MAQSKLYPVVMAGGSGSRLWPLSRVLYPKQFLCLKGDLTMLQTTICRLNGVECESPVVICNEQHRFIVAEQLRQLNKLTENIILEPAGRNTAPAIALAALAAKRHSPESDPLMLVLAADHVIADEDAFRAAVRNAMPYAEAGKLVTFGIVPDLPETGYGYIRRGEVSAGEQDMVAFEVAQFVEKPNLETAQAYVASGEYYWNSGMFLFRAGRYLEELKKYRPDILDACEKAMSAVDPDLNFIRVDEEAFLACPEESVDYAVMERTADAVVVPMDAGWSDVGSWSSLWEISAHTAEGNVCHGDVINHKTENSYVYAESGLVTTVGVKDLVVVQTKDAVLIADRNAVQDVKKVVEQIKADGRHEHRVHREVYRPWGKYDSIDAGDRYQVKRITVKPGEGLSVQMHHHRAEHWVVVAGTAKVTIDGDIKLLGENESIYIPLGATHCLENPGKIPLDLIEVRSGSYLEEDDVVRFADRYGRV

[5] = molecular target: T4, NAD-dependent 7-alpha-hydroxysteriod dehydrogenase (Escherichia coli, UniProt P0AET8 1-255)
T4 sequence (looked up): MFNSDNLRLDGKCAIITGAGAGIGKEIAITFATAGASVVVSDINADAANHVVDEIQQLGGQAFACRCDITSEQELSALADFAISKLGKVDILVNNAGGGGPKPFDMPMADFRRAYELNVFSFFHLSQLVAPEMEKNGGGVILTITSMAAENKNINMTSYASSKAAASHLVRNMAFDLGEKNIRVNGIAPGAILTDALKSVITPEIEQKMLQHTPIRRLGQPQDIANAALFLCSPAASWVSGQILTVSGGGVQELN

citrate synthetase = molecular target: T5, citrate synthetase (Escherichia coli, UniProt P0ABH7 1-427)
T5 sequence (looked up): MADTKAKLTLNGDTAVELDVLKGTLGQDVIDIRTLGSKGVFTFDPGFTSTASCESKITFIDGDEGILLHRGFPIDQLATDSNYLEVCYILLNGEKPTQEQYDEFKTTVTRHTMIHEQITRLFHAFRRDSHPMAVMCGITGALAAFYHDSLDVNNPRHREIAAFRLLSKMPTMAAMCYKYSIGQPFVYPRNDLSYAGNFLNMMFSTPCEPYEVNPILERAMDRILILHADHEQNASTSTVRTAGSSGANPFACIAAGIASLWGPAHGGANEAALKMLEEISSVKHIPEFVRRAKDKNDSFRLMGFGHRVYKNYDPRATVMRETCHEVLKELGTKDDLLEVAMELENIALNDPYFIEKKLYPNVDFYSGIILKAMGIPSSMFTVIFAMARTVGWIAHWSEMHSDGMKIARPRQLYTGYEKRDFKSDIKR

B1: T(Sa)-G-V-F-L (peptide)
peptide: [T(Sa)″]GVFL
modifications: lactam N-1; reading uncertain; also: printed as T(Sa)-G-V-F-L
notes: Library 2 ligand, resynthesised on PEGA4000 resin bead
- binding result [1]: binds

B2: T(Sa)-Y-S-M-P (peptide)
peptide: [T(Sa)″]YSMP
modifications: lactam N-1; reading uncertain; also: printed as T(Sa)-Y-S-M-P
notes: as for B1
- binding result (Biotin synthetase): binds
- binding result [2]: binds

The next lines start with the values.

- binding result [3]: binds
- binding result [4]: binds
B3: T(Sa)-H-W-H-I (peptide)
peptide: [T(Sa)″]HWHI
modifications: lactam N-1; reading uncertain; also: printed as T(Sa)-H-W-H-I
notes: as for B1

- binding result [5]: binds
- binding result (citrate synthetase): binds
B4: T(Sa)-L-S-W-W (peptide)
peptide: [T(Sa)″]LSWW
modifications: lactam N-1; reading uncertain; also: printed as T(Sa)-L-S-W-W
notes: as for B1

— US20040142379A1 (CARLSBERG RESEARCH LABORATORY, published 2004)
